Test results: patent US20130236462A1 (Sanofi, published 2013)
Substitutions are numbered along the chain they refer to. In names and notes the source's numbering stands. Like-named read-outs stand apart in the source and are kept apart here.

Key:
recombinant human IL-13 [1] = target: T1, recombinant human IL-13 (human, UniProt P35225 35-146, limits assumed); assay: cell-based or functional assay
recombinant human IL-13 [2] = target: T1, recombinant human IL-13; assay: SPR Biacore 3000, antibody captured, cytokine in solution
Excerpt: (§1) Surface plasmon resonance technology on a Biacore 3000 (GE Healthcare) was used for detailed kinetic characterisation of purified anibodics. A capture assay using a species specific antibody (e.g. human-Fc specific MAB 1302, Chemicon) for capture and orientation of the investigated antibodies was used. The capture antibody was immobilized via primary amine groups (10000 RU) on a research grade CM5 chip (GE Life Sciences) using standard procedures. The analysed antibody was captured with an adjusted RU value that would result in maximal analyte binding of 30 RU at a flow rate of 10 μl/min. Binding kinetics were measured against recombinant human IL-4 and IL-13 over a concentration range between 0 to 50 nM in HBS EP (10 mM HEPES pH 7.4, 150 mM NaCl, 3 mM EDTA, 0.005% Surfactant P20) at a flow rate of 30 μl/min. Chip surfaces were regenerated with 10 mM glycine pH2.5. Kinetic parameters were analysed and calculated in the BIAevaluation program package using a flow cell without captured antibody as reference. To investigate additive binding of both antigens, a wizard-driven co-inject method has been applied in which one antigen was injected immediately followed by the antigen mix of IL-13/IL-4.

recombinant human IL-4 [3] = target: T2, recombinant human IL-4 (human, UniProt P05112 25-153); assay: cell-based or functional assay
T2 sequence (looked up): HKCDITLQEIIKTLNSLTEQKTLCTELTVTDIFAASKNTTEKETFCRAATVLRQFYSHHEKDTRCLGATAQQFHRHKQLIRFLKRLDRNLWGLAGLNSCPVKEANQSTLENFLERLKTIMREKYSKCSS

[4] = target: human IL-13 R112Q variant (human) (UniProt P35225); assay: SPR Biacore 3000, antibody captured, cytokine in solution
recombinant human IL-4 [5] = target: T2, recombinant human IL-4; assay: as above
Excerpt: as §1
Binding and neutralization activity assays were performed as described in the previous Examples.

recombinant human IL-13 [6] = target: T1, recombinant human IL-13; assay: SPR Biacore 3000, ratio of KD
Excerpt: as §1

recombinant human IL-4 [7] = target: T2, recombinant human IL-4; assay: cell-based or functional assay; remark: listed apart in the source
recombinant human IL-4 [8] = target: T2, recombinant human IL-4; assay: SPR Biacore 3000, ratio of KD
Excerpt: as §1

recombinant human IL-4 [9] = target: T2, recombinant human IL-4; assay: SPR Biacore 3000, antibody captured, cytokine in solution; remark: listed apart in the source
Excerpt: as §1

Chain of human IL-13 R112Q variant (human) (P35225 33-146, stated change not applied): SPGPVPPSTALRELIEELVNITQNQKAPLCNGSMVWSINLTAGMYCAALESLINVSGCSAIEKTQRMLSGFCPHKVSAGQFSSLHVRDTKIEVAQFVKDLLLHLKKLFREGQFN
T1 sequence (P35225 35-146 limits assumed): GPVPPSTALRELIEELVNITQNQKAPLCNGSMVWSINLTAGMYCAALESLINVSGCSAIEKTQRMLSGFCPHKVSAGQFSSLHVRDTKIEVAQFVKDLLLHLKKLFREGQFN

chimeric anti-IL-13 clone B-B13 monoclonal antibody
IC50, inhibition of IL-13 induced TF-1 cell proliferation (recombinant human IL-13 [1]): 7.4 nM
Kd (recombinant human IL-13 [2]): 0.261 nM
koff (recombinant human IL-13 [2]): 0.000461 s⁻¹
kon (recombinant human IL-13 [2]): 1.76e+06 M⁻¹ s⁻¹

mouse anti-IL-13 monoclonal antibody clone B-B13
Kd (recombinant human IL-13 [2]): 0.563 nM
koff (recombinant human IL-13 [2]): 0.000373 s⁻¹
kon (recombinant human IL-13 [2]): 864000 M⁻¹ s⁻¹

B1: huTBTI3_1_1 (bispecific antibody, IgG4)
VH: EVQLKESGPGLVAPGGSLSITCTVSGFSLTDSSINWVRQPPGKGLEWLGMIWGDGRIDYADALKSRLSISKDSSKSQVFLEMTSLRTDDTATYYCARDGYFPYAMDFWGQGTSVTVSSGGGGSGGGGSQVQLQQSGPELVKPGASVKISCKASGYSFTSYWIHWIKQRPGQGLEWIGMIDASDGETRLNQRFQGRATLTVDESTSTAYMQLRSPTSEDSAVYYCTRLKEYGNYDSFYFDVWGAGTLVTVSS
VL: DIVLTQSPASLAVSLGQRATISCRASESVDSYGQSYMHWYQQKAGQPPKLLIYLASNLESGVPARFSGSGSRTDFTLTIDPVQAEDAATYYCQQNAEDSRTFGGGTKLEIKGGGGSGGGGSDIQMTQSPASLSVSVGDTITLTCHASQNIDVWLSWFQQKPGNIPKLLIYKASNLHTGVPSRFSGSGSGTGFTLTISSLQPEDIATYYCQQAHSYPFTFGGGTKLEIK
notes: Dual variable domain IgG4: B-B13 VL3 × VH2 outer, 8D4-8 VL1 × VH2 inner, (G4S)2 linkers; heterotetramer of two heavy and two light chains; copies: 2 + 2
IC50 (nM) in IL-4 assay (TF-1 cell proliferation) (recombinant human IL-4 [3]): 1.7 nM
Kd [4]: 0.121 nM
koff [4]: 0.000118 s⁻¹
kon [4]: 974000 M⁻¹ s⁻¹
Kd (recombinant human IL-4 [5]): 0.148 nM
koff (recombinant human IL-4 [5]): 0.000378 s⁻¹
kon (recombinant human IL-4 [5]): 2.55e+06 M⁻¹ s⁻¹

B2: huTBTI3_1_2 (bispecific antibody, IgG4)
VH: B1 VH
VL: B1 VL with Q34N, A96N
notes: Dual variable domain IgG4: B-B13 VL2 × VH2 outer, 8D4-8 VL1 × VH2 inner, (G4S)2 linkers; heterotetramer of two heavy and two light chains; copies: 2 + 2
Kd (recombinant human IL-4 [5]): 0.138 nM
koff (recombinant human IL-4 [5]): 0.000308 s⁻¹
kon (recombinant human IL-4 [5]): 2.23e+06 M⁻¹ s⁻¹

B3: huTBTI3_2_1 (bispecific antibody, IgG4)
VH: B1 VH with A181P
VL: B1 VL
notes: Dual variable domain IgG4: B-B13 VL3 × VH2 outer, 8D4-8 VL1 × VH1 inner, (G4S)2 linkers; heterotetramer of two heavy and two light chains; copies: 2 + 2
IC50 (nM) in IL-4 assay (TF-1 cell proliferation) (recombinant human IL-4 [3]): 0.32 nM
Kd [4]: 0.211 nM
koff [4]: 0.0002 s⁻¹
kon [4]: 948000 M⁻¹ s⁻¹
Kd (recombinant human IL-4 [5]): 0.0347 nM
koff (recombinant human IL-4 [5]): 0.000139 s⁻¹
kon (recombinant human IL-4 [5]): 4e+06 M⁻¹ s⁻¹

B4: huTBTI3_2_2 (bispecific antibody, IgG4)
VH: B1 VH with A181P
VL: B1 VL with Q34N, A96N
notes: Dual variable domain IgG4: B-B13 VL2 × VH2 outer, 8D4-8 VL1 × VH1 inner, (G4S)2 linkers; heterotetramer of two heavy and two light chains; copies: 2 + 2
Kd (recombinant human IL-4 [5]): 0.0332 nM
koff (recombinant human IL-4 [5]): 0.000132 s⁻¹
kon (recombinant human IL-4 [5]): 3.96e+06 M⁻¹ s⁻¹

B5: huB-B13 VL2 × VH2 (antibody, V domains shown)
VH: EVQLKESGPGLVAPGGSLSITCTVSGFSLTDSSINWVRQPPGKGLEWLGMIWGDGRIDYADALKSRLSISKDSSKSQVFLEMTSLRTDDTATYYCARDGYFPYAMDFWGQGTSVTVSS
VL: DIVLTQSPASLAVSLGQRATISCRASESVDSYGNSYMHWYQQKAGQPPKLLIYLASNLESGVPARFSGSGSRTDFTLTIDPVQAEDAATYYCQQNNEDSRTFGGGTKLEIK
notes: Expressed as a whole antibody, purified on Protein A; also called humanized B-B13 VL2xVH2
Kd (recombinant human IL-13 [2]): 0.157 nM
koff (recombinant human IL-13 [2]): 0.000177 s⁻¹
kon (recombinant human IL-13 [2]): 1.13e+06 M⁻¹ s⁻¹

B6: huB-B13 VL1 × VH1 (antibody, V domains shown)
VH: B5 VH with A60N, S73N, T83N
VL: B5 VL with S99P
notes: Expressed as a whole antibody, purified on Protein A; also called humanized B-B13 VL1xVH1
IC50, inhibition of IL-13 induced TF-1 cell proliferation (recombinant human IL-13 [1]): 15.7 nM
Kd (recombinant human IL-13 [2]): 0.396 nM
koff (recombinant human IL-13 [2]): 0.000691 s⁻¹
kon (recombinant human IL-13 [2]): 1.74e+06 M⁻¹ s⁻¹

B7: huB-B13 VL1 × VH3 (antibody, V domains shown)
VH: B5 VH with Y100R, D106K
VL: B5 VL with S99P
notes: Expressed as a whole antibody, purified on Protein A; also called humanized B-B13 VL1xVH3
Kd (recombinant human IL-13 [2]): 0.205 nM
koff (recombinant human IL-13 [2]): 0.000395 s⁻¹
kon (recombinant human IL-13 [2]): 1.93e+06 M⁻¹ s⁻¹

B8: huB-B13 VL3 × VH1 (antibody, V domains shown)
VH: B5 VH with A60N, S73N, T83N
VL: B5 VL with N34Q, N96A
notes: Expressed as a whole antibody, purified on Protein A; also called humanized B-B13 VL3xVH1
IC50, inhibition of IL-13 induced TF-1 cell proliferation (recombinant human IL-13 [1]): 5.2 nM
Kd (recombinant human IL-13 [2]): 0.172 nM
koff (recombinant human IL-13 [2]): 0.000333 s⁻¹
kon (recombinant human IL-13 [2]): 1.93e+06 M⁻¹ s⁻¹

B9: huB-B13 VL3 × VH2 (antibody, V domains shown)
VH: B5 VH
VL: B5 VL with N34Q, N96A
notes: Expressed as a whole antibody, purified on Protein A; also called huB-B13 VL3xVH2; humanized B-B13 VL3xVH2
IC50, inhibition of IL-13 induced TF-1 cell proliferation (recombinant human IL-13 [1]): 3.2 nM
fold higher affinity than chimeric B-B13 (recombinant human IL-13 [6]): 6 fold
fold higher affinity than the original murine B-B13 (recombinant human IL-13 [6]): 13 fold
Kd (recombinant human IL-13 [2]): 0.0439 nM
koff (recombinant human IL-13 [2]): 0.000112 s⁻¹
kon (recombinant human IL-13 [2]): 2.55e+06 M⁻¹ s⁻¹

B10: huB-B13 VL3 × VH3 (antibody, V domains shown)
VH: B5 VH with Y100R, D106K
VL: B5 VL with N34Q, N96A
notes: Expressed as a whole antibody, purified on Protein A; also called humanized B-B13 VL3xVH3
Kd (recombinant human IL-13 [2]): 0.189 nM
koff (recombinant human IL-13 [2]): 0.000405 s⁻¹
kon (recombinant human IL-13 [2]): 2.14e+06 M⁻¹ s⁻¹

B11: Hu8D4-8 VL1 × VH1 (antibody, V domains shown)
VH: QVQLQQSGPELVKPGASVKISCKASGYSFTSYWIHWIKQRPGQGLEWIGMIDPSDGETRLNQRFQGRATLTVDESTSTAYMQLRSPTSEDSAVYYCTRLKEYGNYDSFYFDVWGAGTLVTVSS
VL: DIQMTQSPASLSVSVGDTITLTCHASQNIDVWLSWFQQKPGNIPKLLIYKASNLHTGVPSRFSGSGSGTGFTLTISSLQPEDIATYYCQQAHSYPFTFGGGTKLEIKR
notes: Expressed as a whole antibody, purified on Protein A; also called hu8D4-8 VL1xVH1; humanized 8D4-8 VL1xVH1
IC50, inhibition of IL-4 induced TF-1 cell proliferation (recombinant human IL-4 [7]): 0.041 nM
fold higher affinity than chimeric 8D4-8 (recombinant human IL-4 [8]): 2 fold
fold higher affinity than the original murine 8D4-8 (recombinant human IL-4 [8]): 11 fold
Kd (recombinant human IL-4 [9]): 0.00329 nM
koff (recombinant human IL-4 [9]): 0.000155 s⁻¹
kon (recombinant human IL-4 [9]): 4.72e+07 M⁻¹ s⁻¹

B12: Hu8D4-8 VL1 × VH2 (antibody, V domains shown)
VH: B11 VH with P53A
VL: B11 VL
notes: Expressed as a whole antibody, purified on Protein A; also called humanized 8D4-8 VL1xVH2
IC50, inhibition of IL-4 induced TF-1 cell proliferation (recombinant human IL-4 [7]): 0.135 nM
Kd (recombinant human IL-4 [9]): 0.0139 nM
koff (recombinant human IL-4 [9]): 0.000348 s⁻¹
kon (recombinant human IL-4 [9]): 2.57e+07 M⁻¹ s⁻¹

B13: mouse anti-IL-4 monoclonal antibody clone 8D4-8 (antibody, V domains shown)
VH: B11 VH with E10Q, K13R, A16T, Q65K, G66D, E74R, T76S, V93L, L118T
VL: B11 VL with T5N, V15L, K39S
notes: Bought mouse monoclonal antibody (Biozol / BioLegend); also called murine 8D4-8
IC50, inhibition of IL-4 induced TF-1 cell proliferation (recombinant human IL-4 [7]): 0.097 nM
Kd (recombinant human IL-4 [9]): 0.0377 nM
koff (recombinant human IL-4 [9]): 0.000217 s⁻¹
kon (recombinant human IL-4 [9]): 5.57e+06 M⁻¹ s⁻¹

B14: chimeric anti-IL-4 clone 8D4-8 monoclonal antibody (antibody, V domains shown)
VH: B11 VH with E10Q, K13R, A16T, Q65K, G66D, E74R, T76S, V93L, L118T
VL: DIQMNQSPASLSVSLGDTITLTCHASQNIDVWLSWFQQSPGNIPKLLIYKASNLHTGVPSRFSGSGSGTGFTLTISSLQPEDIATYYCQQAHSYPFTFGGGTKLEIK
notes: Murine variable domains fused to IGHG1 and IGKC; also called ch8D4-8 WT; chimeric 8D4-8
IC50, inhibition of IL-4 induced TF-1 cell proliferation (recombinant human IL-4 [7]): 0.084 nM
Kd (recombinant human IL-4 [9]): 0.00783 nM
koff (recombinant human IL-4 [9]): 0.000195 s⁻¹
kon (recombinant human IL-4 [9]): 2.49e+07 M⁻¹ s⁻¹
